Experimental findings from paper PMC5915598, “Structural basis for the activation of acid ceramidase” (Nature Communications, 2018) are described below.

This assay addresses T1, human acid ceramidase (aCDase, ASAH1) β-subunit (human, UniProt Q13510 143-395, N-glycosylated (insect cell glycans); disulfide C340 to C31 of the α-subunit; disulfide C388/C392).
T1 construct: acid ceramidase, human, UniProt Q13510; the construct spans residues 22-395 and autocleaves before Cys 143, which becomes the N terminus of the β-subunit: residues 143-395; Made as one chain with the α-subunit and set free by autocleavage; also called 30 kDa β-subunit
T1 sequence (looked up): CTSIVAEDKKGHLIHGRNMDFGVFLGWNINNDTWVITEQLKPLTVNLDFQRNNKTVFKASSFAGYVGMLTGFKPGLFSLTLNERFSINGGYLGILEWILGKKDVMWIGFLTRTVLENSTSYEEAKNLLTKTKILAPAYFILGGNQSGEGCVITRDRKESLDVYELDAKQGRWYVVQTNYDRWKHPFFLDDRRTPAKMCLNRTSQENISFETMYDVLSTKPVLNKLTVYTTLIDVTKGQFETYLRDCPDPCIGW
As to the kind of experiment: crystal structure; autocleaved human aCDase, incubated with 1 mM ceranib-2 and 1 mM Triton X-100, crystallised at 22 °C in 100 mM sodium phosphate-citrate pH 4.3, 200 mM Li2SO4, 20% PEG 1000; the two subunits come from one chain and are also linked by a disulfide. The following applies: both partners purified.

B1: human acid ceramidase (aCDase, ASAH1) α-subunit (domain or fragment, UniProt Q13510 22-142, looked up)
chain: QHAPPWTEDCRKSTYPPSGPTYRGAVPWYTINLDLPPYKRWHELMLDKAPVLKVIVNSLKNMINTFVPSGKVMQVVDEKLPGLLGNFPGPFEEEMKGIAAVTDIPLGEIISFNIFYELFTI
modifications: N-glycosylated (insect cell glycans); disulfide C31 to C340 of the β-subunit
notes: acid ceramidase, human, UniProt Q13510 variant Ile93Val; the construct spans residues 22-395 and autocleaves at the peptide bond between Ile 142 and Cys 143, so the α-subunit is residues 22-142; no removal of the tag is told; Residues 141 and 142 are disordered in the structure; also called 13 kDa α-subunit
In the case of B1, the binding result is given as “binds”.
